Earlier results in US12514872B2, “Polycationic polymers for use in treating and detecting cancer” (Duke University, priority 2015, dated 2026).

B1: DNAse I: enzyme used in a cited PC study to treat tumor cells associated with extracellular DNA (protein, UniProt P24855 23-282, looked up)
Deoxyribonuclease-1: LKIAAFNIQTFGETKMSNATLVSYIVQILSRYDIALVQEVRDSHLTAVGKLLDNLNQDAPDTYHYVVSEPLGRNSYKERYLFVYRPDQVSAVDSYYYDDGCEPCGNDTFNREPAIVRFFSRFTEVREFAIVPLHAAPGDAVAEIDALYDVYLDVQEKWGLEDVMLMGDFNAGCSYVRPSQWSSIRLWTSPTFQWLIPDSADTTATPTHCAYDRIVVAGMLLRGAVVPDSALPFNFQAAYGLSDQLAQAISDHYPVEVMLK

Assays:
[1] = system: RNA oligonucleotide coagulation-factor inhibitors (aptamers); settings: previous work, WO2008/121354
PC tumor cell lines = settings: in vitro
[2] = system: orthotopic xenograft pancreatic tumors

Row | Molecule | reversal of anticoagulant activity of aptamers [1] | cell invasion, migration and adhesion (PC tumor cell lines) | tumor metastasis [2]
1 | protamine sulfate | reverse the anticoagulant activity |  | 
2 | B1 |  | reduced cell invasion, migration, and adhesion | reduction in tumor metastasis
